Experimental data reported in paper PMC10531876, “PLK1 Regulates MicroRNA Biogenesis through Drosha Phosphorylation” (International Journal of Molecular Sciences, 2023).

Target: T1, Flag-Drosha S300E,S302D (phospho-mimic) (UniProt Q9NRR4 1-1374, S300E | S302D)
T1 construct: Drosha with S300E and S302D, Flag-tagged as m1; also called phospho-mimic Drosha; source: HEK293T, transfected, in lysate
T1 sequence (looked up): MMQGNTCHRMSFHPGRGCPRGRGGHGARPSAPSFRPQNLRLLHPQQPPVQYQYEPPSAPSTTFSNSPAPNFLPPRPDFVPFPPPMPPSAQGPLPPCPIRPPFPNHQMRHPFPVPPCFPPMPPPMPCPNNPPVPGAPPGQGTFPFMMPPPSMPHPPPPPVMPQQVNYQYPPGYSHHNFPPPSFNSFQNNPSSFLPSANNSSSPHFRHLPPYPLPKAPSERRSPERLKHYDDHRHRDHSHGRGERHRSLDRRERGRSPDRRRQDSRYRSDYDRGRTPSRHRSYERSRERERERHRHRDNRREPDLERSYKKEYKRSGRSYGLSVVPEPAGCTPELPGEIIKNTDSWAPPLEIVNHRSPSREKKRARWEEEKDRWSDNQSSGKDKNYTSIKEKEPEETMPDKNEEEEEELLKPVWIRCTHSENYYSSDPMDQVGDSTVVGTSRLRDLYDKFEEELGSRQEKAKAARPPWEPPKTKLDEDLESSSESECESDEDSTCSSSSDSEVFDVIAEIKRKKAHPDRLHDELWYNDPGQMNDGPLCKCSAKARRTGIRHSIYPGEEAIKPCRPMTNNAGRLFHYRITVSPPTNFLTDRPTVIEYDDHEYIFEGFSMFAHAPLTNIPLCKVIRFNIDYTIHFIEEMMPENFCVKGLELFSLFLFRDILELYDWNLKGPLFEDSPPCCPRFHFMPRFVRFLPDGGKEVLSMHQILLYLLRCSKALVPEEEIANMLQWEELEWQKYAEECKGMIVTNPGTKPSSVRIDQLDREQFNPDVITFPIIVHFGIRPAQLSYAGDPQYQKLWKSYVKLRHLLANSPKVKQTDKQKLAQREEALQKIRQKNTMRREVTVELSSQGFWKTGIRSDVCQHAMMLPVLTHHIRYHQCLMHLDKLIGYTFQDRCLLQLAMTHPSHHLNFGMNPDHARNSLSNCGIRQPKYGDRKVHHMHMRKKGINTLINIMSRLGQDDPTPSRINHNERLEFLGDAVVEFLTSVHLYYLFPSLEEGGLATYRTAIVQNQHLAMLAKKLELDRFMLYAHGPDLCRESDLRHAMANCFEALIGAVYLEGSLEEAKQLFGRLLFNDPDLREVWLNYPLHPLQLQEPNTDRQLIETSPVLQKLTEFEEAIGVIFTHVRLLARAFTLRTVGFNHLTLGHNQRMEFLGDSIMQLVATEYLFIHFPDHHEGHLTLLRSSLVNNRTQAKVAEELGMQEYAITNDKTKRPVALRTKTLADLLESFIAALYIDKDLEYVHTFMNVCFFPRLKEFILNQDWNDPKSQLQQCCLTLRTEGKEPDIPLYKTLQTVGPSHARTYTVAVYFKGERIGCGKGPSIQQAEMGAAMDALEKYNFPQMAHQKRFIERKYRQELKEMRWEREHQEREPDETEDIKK
Assay: co-IP; Flag immunoprecipitates of HEK293T cells transfected with Flag-Drosha (WT or mutants), blotted for PLK1 or DGCR8; cells treated with DMSO, RO-520 (100 nM) or NMS (500 nM) for 16 h, or samples with RNase A; mutant panel 72 h after transfection
Conditions: partners not purified

fold change of co-precipitated DGCR8 against WT Drosha: 2.5 fold
B1: DGCR8 (natural protein, human (endogenous in HEK293T), UniProt Q8WYQ5 1-773, looked up)
chain: METDESPSPLPCGPAGEAVMESRARPFQALPREQSPPPPLQTSSGAEVMDVGSGGDGQSELPAEDPFNFYGASLLSKGSFSKGRLLIDPNCSGHSPRTARHAPAVRKFSPDLKLLKDVKISVSFTESCRSKDRKVLYTGAERDVRAECGLLLSPVSGDVHACPFGGSVGDGVGIGGESADKKDEENELDQEKRVEYAVLDELEDFTDNLELDEEGAGGFTAKAIVQRDRVDEEALNFPYEDDFDNDVDALLEEGLCAPKKRRTEEKYGGDSDHPSDGETSVQPMMTKIKTVLKSRGRPPTEPLPDGWIMTFHNSGVPVYLHRESRVVTWSRPYFLGTGSIRKHDPPLSSIPCLHYKKMKDNEEREQSSDLTPSGDVSPVKPLSRSAELEFPLDEPDSMGADPGPPDEKDPLGAEAAPGALGQVKAKVEVCKDESVDLEEFRSYLEKRFDFEQVTVKKFRTWAERRQFNREMKRKQAESERPILPANQKLITLSVQDAPTKKEFVINPNGKSEVCILHEYMQRVLKVRPVYNFFECENPSEPFGASVTIDGVTYGSGTASSKKLAKNKAARATLEILIPDFVKQTSEEKPKDSEELEYFNHISIEDSRVYELTSKAGLLSPYQILHECLKRNHGMGDTSIKFEVVPGKNQKSEYVMACGKHTVRGWCKNKRVGKQLASQKILQLLHPHVKNWGSLLRMYGRESSKMVKQETSDKSVIELQQYAKKNKPNLHILSKLQEEMKRLAEEREETRKKPKMSIVASAQPGGEPLCTVDV
notes: DGCR8, Microprocessor cofactor of Drosha, detected by blot in Flag immunoprecipitates of HEK293T cells; source: HEK293T lysate (cells transfected with Flag-Drosha only)
